What was measured:
[1] = biological target: T1, MdBIS3 (MdBIS3.1) (Malus domestica, UniProt K9MST3); experiment: X-ray crystal structure, […] Å; format: binding; conditions: crystals soaked with 15 mM benzoyl-CoA; CoA tunnel and active site, partial occupancy; active-site cysteine oxidized to sulfinic acid
T1 construct: cDNA in pHIS8, E. coli BL21(DE3), N-terminal His8 tag cut with thrombin; homodimer

[2] = substrate: CC(C)(COP(=O)(O)OP(=O)(O)OC[C@H]1O[C@@H](n2cnc3c(N)ncnc32)[C@H](O)[C@@H]1OP(=O)(O)O)[C@@H](O)C(=O)NCCC(=O)NCCSC(=O)CC(=O)O; experiment: steady-state kinetics, LC-MS product quantification; format: biochemical, Hypericum androsaemum; conditions: starter substrate held constant (standard 20 µM), 0.1 M potassium phosphate pH 7.0, 37°C
From the text: (§1) steady-state kinetics, LC-MS product quantification on HaBPS

[3] = substrate: CC(C)(COP(=O)(O)OP(=O)(O)OC[C@H]1O[C@@H](n2cnc3c(N)ncnc32)[C@H](O)[C@@H]1OP(=O)(O)O)[C@@H](O)C(=O)NCCC(=O)NCCSC(=O)c1ccccc1; experiment: as above; format: biochemical, Hypericum androsaemum; conditions: malonyl-CoA held constant (standard 80 µM), 0.1 M potassium phosphate pH 7.0, 37°C
From the text: as §1

[4] = substrate: CC(C)(COP(=O)(O)OP(=O)(O)OC[C@H]1O[C@@H](n2cnc3c(N)ncnc32)[C@H](O)[C@@H]1OP(=O)(O)O)[C@@H](O)C(=O)NCCC(=O)NCCSC(=O)CC(=O)O; experiment: as above; format: biochemical, Malus domestica; conditions: coumaroyl-CoA held constant (standard 60 µM), 0.1 M potassium phosphate pH 7.0, 37°C
From the text: (§2) steady-state kinetics, LC-MS product quantification on MdCHS2

[5] = substrate: CC(C)(COP(=O)(O)OP(=O)(O)OC[C@H]1O[C@@H](n2cnc3c(N)ncnc32)[C@H](O)[C@@H]1OP(=O)(O)O)[C@@H](O)C(=O)NCCC(=O)NCCSC(=O)/C=C/c1ccc(O)cc1; experiment: as above; format: biochemical, Malus domestica; conditions: malonyl-CoA held constant (standard 100 µM), 0.1 M potassium phosphate pH 7.0, 37°C
From the text: as §2

[6] = substrate: CC(C)(COP(=O)(O)OP(=O)(O)OC[C@H]1O[C@@H](n2cnc3c(N)ncnc32)[C@H](O)[C@@H]1OP(=O)(O)O)[C@@H](O)C(=O)NCCC(=O)NCCSC(=O)c1ccccc1O; experiment: as above; format: biochemical, Malus domestica; conditions: malonyl-CoA held constant (standard 60 µM), 0.1 M potassium phosphate pH 7.0, 37°C
From the text: (§3) steady-state kinetics, LC-MS product quantification on MdBIS3 (MdBIS3.1)

[7] = substrate: CC(C)(COP(=O)(O)OP(=O)(O)OC[C@H]1O[C@@H](n2cnc3c(N)ncnc32)[C@H](O)[C@@H]1OP(=O)(O)O)[C@@H](O)C(=O)NCCC(=O)NCCSC(=O)CC(=O)O; experiment: as above; format: biochemical, Malus domestica; conditions: starter substrate held constant (standard 15 µM; which starter not told), 0.1 M potassium phosphate pH 7.0, 37°C
From the text: as §3

[8] = substrate: CC(C)(COP(=O)(O)OP(=O)(O)OC[C@H]1O[C@@H](n2cnc3c(N)ncnc32)[C@H](O)[C@@H]1OP(=O)(O)O)[C@@H](O)C(=O)NCCC(=O)NCCSC(=O)c1ccccc1; experiment: as above; format: biochemical, Malus domestica; conditions: malonyl-CoA held constant (standard 60 µM), 0.1 M potassium phosphate pH 7.0, 37°C
From the text: as §3

[9] = substrate: CC(C)(COP(=O)(O)OP(=O)(O)OC[C@H]1O[C@@H](n2cnc3c(N)ncnc32)[C@H](O)[C@@H]1OP(=O)(O)O)[C@@H](O)C(=O)NCCC(=O)NCCSC(=O)c1ccccc1O; experiment: as above; format: biochemical, Malus domestica; conditions: malonyl-CoA held constant (standard 60 µM), 0.1 M potassium phosphate pH 7.0, 37°C; remark: listed apart in the source
From the text: (§4) steady-state kinetics, LC-MS product quantification on MdBIS1 (MdBIS1.1)

[10] = substrate: CC(C)(COP(=O)(O)OP(=O)(O)OC[C@H]1O[C@@H](n2cnc3c(N)ncnc32)[C@H](O)[C@@H]1OP(=O)(O)O)[C@@H](O)C(=O)NCCC(=O)NCCSC(=O)CC(=O)O; experiment: as above; format: biochemical, Malus domestica; conditions: starter substrate held constant (standard 15 µM; which starter not told), 0.1 M potassium phosphate pH 7.0, 37°C; remark: listed apart in the source
From the text: as §4

[11] = substrate: CC(C)(COP(=O)(O)OP(=O)(O)OC[C@H]1O[C@@H](n2cnc3c(N)ncnc32)[C@H](O)[C@@H]1OP(=O)(O)O)[C@@H](O)C(=O)NCCC(=O)NCCSC(=O)c1ccccc1; experiment: as above; format: biochemical, Malus domestica; conditions: malonyl-CoA held constant (standard 60 µM), 0.1 M potassium phosphate pH 7.0, 37°C; remark: listed apart in the source
From the text: as §4

With CC(C)(COP(=O)(O)OP(=O)(O)OC[C@H]1O[C@@H](n2cnc3c(N)ncnc32)[C@H](O)[C@@H]1OP(=O)(O)O)[C@@H](O)C(=O)NCCC(=O)NCCSC(=O)c1ccccc1 [Benzoyl-CoA] the “X-ray crystal structure, 1.20 Å” value [1] was “co-crystallization of MdBIS3 with benzoyl-CoA, resulting in intact benzoyl-CoA molecules with partial occupancies”.

B1: HaBPS (Hypericum androsaemum) (protein)
chain: MAPAMEYSTQNGQGEGKKRASVLAIGTTNPEHFILQEDYPDFYFRNTNSEHMTELKEKFKRICVKSHIRKRHFYLTEEILKENQGIATYGAGSLDARQRILETEVPKLGQEAALKAIAEWGQPISKITHVVFATTSGFMMPGADYVITRLLGLNRTVRRVMLYNQGCFAGGTALRVAKDLAENNEGARVLVVCAENTAMTFHAPNESHLDVIVGQAMFSDGAAALIIGACPDVASGERAVFNILSASQTIVPGSDGAITAHFYEMGMSYFLKEDVIPLFRDNIAAVMEEAFSPLGVSDWNSLFYSIHPGGRGIIDGVAGNLGIKDENLVATRHVLGEYGNMGSACVMFILDELRKSSKVNGKPTTGDGKEFGCLIGLGPGLTVEAVVLQSVPILQ
notes: codon-optimized synthetic gene in pHIS8, E. coli BL21(DE3), N-terminal His8 tag cut with thrombin; homodimer
Molecule B1 has a Km [2] of 2.8 ± 0.7 µM, a Km [3] of 1.3 ± 0.5 µM and a kcat [3] of 0.0183 s⁻¹. For the same molecule, the kcat/Km [3] was 14000 M⁻¹ s⁻¹.

B2: MdCHS2 (Malus domestica) (protein)
chain: MVTVEEVRKAQRAEGPATVLAIGTATPSNCVDQATYPDYYFRITNSEHKTELKEKFQRMCDKSMIKKRYMYLTEEILKENPTVCEYMAPSLDARQDMVVVEVPRLGKEAATKAIKEWGQPKSKITHLVFCTTSGVDMPGADYQLTKLLGLRPYVKRLMMYQQGCFAGGTVLRLAKDLAENNKGARVLVVCSEITAVTFRGPSDTHLDSLVGQALFGDGAAAVIIGADPLPEVEKPLFELVSAAQTILPDSDGAIDGHLREVGLTFHLLKDVPGLISKNIEKSLNEAFKPIGISDWNSLFWIAHPGGPAILDQVESKLALKPEKLEATRQVLSNYGNMSSACVLFILDEVRRKSTEKGLRTTGEGLEWGVLFGFGPGLTVETVVLHSVAA
notes: cDNA in pHIS8, E. coli BL21(DE3), N-terminal His8 tag cut with thrombin; homodimer
B2 gave a Km [4] of 12.8 ± 2.7 µM, a Km [5] of 17.9 ± 6.1 µM and a kcat [5] of 0.02 ± 0.00167 s⁻¹. For the same molecule, the kcat/Km [5] was 1120 M⁻¹ s⁻¹.

B3: MdBIS3 (MdBIS3.1) (Malus domestica) (protein)
chain: MAPLVKNEPQHAKILAIGTANPPNVYHQKDYPDFLFRVTKNEHRTDLREKFDRICEKSRTKKRYLHLTEEMLKANPNIYTYGAPSLDVRQDICNIEVPKLGQEAALKAIKEWGQPISRITHLIFCTASCVDMPGCDFQLIKLLGLDPSVTRTMIYEAGCYAGATVLRMAKDFAENNKGARVLVVCAEITTVFFHGLTDTHLDILVGQALFADGASAVIVGANPEPEIERPLFEIVACRQTILPNSEHGVVANIREMGFNYYLSGDVPKFVGGNVVDFMTKTFEKVDGKKKDWNSLFFSVHPGGPAIVDQVEEKLGLKEGKLRATRHVLSEYGNMGAPTVHFILDEMRNKSIEEGKTTTGEGLEWGVVIGIGPGLTVETAVLRSESIRC
notes: as for B2
In the case of B3, the Km [6] is reported as 1.1 ± 0.4 µM, the kcat [6] is reported as 0.1 ± 0.00167 s⁻¹ and the kcat/Km [6] is reported as 90000 M⁻¹ s⁻¹. It also gave a Km [7] of 4.1 ± 1.9 µM, a Km [8] of 0.5 ± 0.1 µM and a kcat [8] of 0.135 s⁻¹. The kcat/Km [8] was 270000 M⁻¹ s⁻¹.

B4: MdBIS1 (MdBIS1.1) (Malus domestica) (protein)
chain: MAPLVKNHGEHQHAKILAIGTANPPNVYYQKDYPDFLFRVTKNEHRTDLREKFDRICEKSRTRKRYLHLTEEILKANPSIYTYGAPSLDVRQDMLNPEVPKLGQQAALKAIKEWGQPISKITHLIFCTASCVDMPGADFQLVKLLGLNPSVTRTMIYEAGCYAGATVLRLAKDFAENNEGARVLVVCAEITTVFFHGLTDTHLDILVGQALFADGASAVIVGANPEPKIERPLFEIVACRQTIIPNSEHGVVANIREMGFTYYLSGEVPKFVGGNVVDFLTKTFEKVDGKNKDWNSLFFSVHPGGPAIVDQVEEQLGLKEGKLRATRHVLSEYGNMGAPSVHFILDDMRKKSIEEGKSTTGEGLEWGVVIGIGPGLTVETAVLRSESITC
notes: cDNA in pHIS8, E. coli BL21(DE3), N-terminal His8 tag cut with thrombin
B4 was tested, and the Km [9] was 1.6 ± 0.4 µM, the kcat [9] was 0.2083 ± 0.00167 s⁻¹ and the kcat/Km [9] was 130000 M⁻¹ s⁻¹. The Km [10] was 6.8 ± 1.7 µM, the Km [11] was 0.8 ± 0.2 µM and the kcat [11] was 0.2833 ± 0.00167 s⁻¹. For the same molecule, the kcat/Km [11] was 350000 M⁻¹ s⁻¹.

Source: paper PMC5713876, “Molecular architectures of benzoic acid-specific type III polyketide synthases” (Acta Crystallographica. Section D, Structural Biology, 2017)
